{"source": "paper PMC5344980", "about": "“PARP1 promotes gene expression at the post-transcriptional level by modulating the RNA-binding protein HuR”", "key": {"GST-HuR [1]": {"target": "T1, GST-HuR (human? (species ; plasmid …, UniProt Q15717 1-326)", "T1 sequence (Q15717 whole entry)": "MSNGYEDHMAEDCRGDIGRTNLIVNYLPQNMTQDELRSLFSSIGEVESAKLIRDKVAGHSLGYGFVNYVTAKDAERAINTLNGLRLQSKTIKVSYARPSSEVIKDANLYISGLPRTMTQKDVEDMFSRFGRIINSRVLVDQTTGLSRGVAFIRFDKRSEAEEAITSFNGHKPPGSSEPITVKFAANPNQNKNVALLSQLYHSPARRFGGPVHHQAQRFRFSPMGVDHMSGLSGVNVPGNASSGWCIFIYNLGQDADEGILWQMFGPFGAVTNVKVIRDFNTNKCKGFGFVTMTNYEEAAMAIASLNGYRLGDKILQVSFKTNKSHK", "assay": "EMSA; with PARP1 + PJ34; enhancement abolished; 3 mM MgCl2, 40 mM KCl, 5% glycerol, 2 mM DTT, 2 ug tRNA, 20 uM (so in the source) 5'-biotin RNA, 40 min at room temperature; 6% native acrylamide gel; protein 100-160", "details": "protein: recombinant; tags: GST; label: 5' biotin"}, "GST-HuR [2]": {"target": "T1, GST-HuR", "assay": "EMSA; no PARP1; Kd value only in figure; 3 mM MgCl2, 40 mM KCl, 5% glycerol, 2 mM DTT, 2 ug tRNA, 20 uM (so in the source) 5'-biotin RNA, 40 min at room temperature; 6% native acrylamide gel; protein 100-160", "details": "protein: recombinant; tags: GST; label: 5' biotin"}, "GST-HuR [3]": {"target": "T1, GST-HuR", "assay": "EMSA; no PARP1; several shifted bands; 3 mM MgCl2, 40 mM KCl, 5% glycerol, 2 mM DTT, 2 ug tRNA, 20 uM (so in the source) 5'-biotin RNA, 40 min at room temperature; 6% native acrylamide gel; protein 100-160", "details": "protein: recombinant; tags: GST; label: 5' biotin"}, "PARP1": {"target": "PARP1 (UniProt P09874 2-1014)", "sequence (P09874 2-1014)": "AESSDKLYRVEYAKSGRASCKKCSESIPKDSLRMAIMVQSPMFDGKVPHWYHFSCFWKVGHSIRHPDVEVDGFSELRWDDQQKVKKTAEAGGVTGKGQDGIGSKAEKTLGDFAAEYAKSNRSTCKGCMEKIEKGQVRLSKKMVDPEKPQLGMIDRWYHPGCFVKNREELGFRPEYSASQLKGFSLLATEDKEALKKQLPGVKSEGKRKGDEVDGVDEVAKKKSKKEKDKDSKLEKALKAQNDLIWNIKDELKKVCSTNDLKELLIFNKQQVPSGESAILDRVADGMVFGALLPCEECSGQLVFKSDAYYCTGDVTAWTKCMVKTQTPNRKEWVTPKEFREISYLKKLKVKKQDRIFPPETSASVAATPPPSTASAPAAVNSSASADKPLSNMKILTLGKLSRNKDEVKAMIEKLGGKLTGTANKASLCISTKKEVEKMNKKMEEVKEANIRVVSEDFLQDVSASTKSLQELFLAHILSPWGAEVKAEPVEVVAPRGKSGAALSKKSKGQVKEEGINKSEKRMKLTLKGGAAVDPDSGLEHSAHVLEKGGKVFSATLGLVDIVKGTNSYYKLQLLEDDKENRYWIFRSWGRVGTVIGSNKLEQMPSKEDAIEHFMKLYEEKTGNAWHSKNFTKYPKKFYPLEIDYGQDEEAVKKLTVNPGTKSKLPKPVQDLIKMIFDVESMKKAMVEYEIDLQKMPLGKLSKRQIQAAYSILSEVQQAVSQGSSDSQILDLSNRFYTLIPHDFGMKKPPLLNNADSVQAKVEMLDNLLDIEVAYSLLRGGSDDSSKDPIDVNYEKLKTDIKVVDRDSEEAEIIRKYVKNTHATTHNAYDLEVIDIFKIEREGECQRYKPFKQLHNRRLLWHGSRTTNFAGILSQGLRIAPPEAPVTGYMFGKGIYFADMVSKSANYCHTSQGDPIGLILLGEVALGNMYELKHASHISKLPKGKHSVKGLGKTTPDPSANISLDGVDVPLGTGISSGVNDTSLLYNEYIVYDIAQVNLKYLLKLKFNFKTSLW", "assay": "EMSA; PARylation buffer, titrated sonicated DNA; no shifted bands; 3 mM MgCl2, 40 mM KCl, 5% glycerol, 2 mM DTT, 2 ug tRNA, 20 uM (so in the source) 5'-biotin RNA, 40 min at room temperature; 6% native acrylamide gel; protein 100-160", "details": "protein: recombinant; label: 5' biotin"}, "GST-HuR [4]": {"target": "T1, GST-HuR", "assay": "EMSA; no PARP1; 3 mM MgCl2, 40 mM KCl, 5% glycerol, 2 mM DTT, 2 ug tRNA, 20 uM (so in the source) 5'-biotin RNA, 40 min at room temperature; 6% native acrylamide gel; protein 100-160", "details": "protein: recombinant; tags: GST; label: 5' biotin"}}}
{"binder": "CUAUGUAUUUAUUUAUUUAUUAAUU (ssRNA)", "note": "[Cxcl2-ARE2 RNA oligo]", "values": [{"measurement": "binding result", "setting": "GST-HuR [1]", "result": "binds"}]}
{"binder": "AGUUCACUUAUUUAUUUAUCUAUGU (ssRNA)", "note": "[Cxcl2-ARE1 RNA oligo]", "values": [{"measurement": "binding result", "setting": "GST-HuR [2]", "result": "binds"}]}
{"binder": "AUUUAUUUAUUUAUUUAUUUAUUUA (ssRNA)", "note": "[AU-rich RNA oligo (tandem ARE)]", "values": [{"measurement": "binding result", "setting": "GST-HuR [3]", "result": "binds"}, {"measurement": "binding result", "setting": "PARP1", "result": "no binding"}]}
{"binder": "GUGGACACAUUUAUUUAUUCAUGUA (ssRNA)", "note": "[Cxcl2-ARE3 RNA oligo]", "values": [{"measurement": "binding result", "setting": "GST-HuR [4]", "result": "no binding"}]}
